What was measured:
Assay in all cases: SPOT array
[1] = target: T1, Hse1, P38753; details: median of control spots 1727
T1 sequence (P38753 208-285, looked up): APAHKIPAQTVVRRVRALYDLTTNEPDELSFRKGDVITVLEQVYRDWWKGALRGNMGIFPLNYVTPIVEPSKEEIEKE

[2] = target: T2, Sla1-2, P32790; details: median of control spots 712
T2 sequence (P32790 60-140, looked up): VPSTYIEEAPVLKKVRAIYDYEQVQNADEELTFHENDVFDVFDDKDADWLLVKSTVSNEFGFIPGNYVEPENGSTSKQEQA

[3] = target: T3, Lsb1, P53281; details: median of control spots 388
T3 sequence (P53281 45-122, looked up): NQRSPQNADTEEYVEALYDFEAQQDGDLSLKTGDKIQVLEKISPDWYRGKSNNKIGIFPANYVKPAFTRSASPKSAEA

[4] = target: T4, Nbp2, Q12163; details: median of control spots 357
T4 sequence (Q12163 103-180, looked up): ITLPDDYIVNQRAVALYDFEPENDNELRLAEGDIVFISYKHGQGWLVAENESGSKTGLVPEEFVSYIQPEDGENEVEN

[5] = target: GST; details: median of control spots 978
[6] = target: Sho1, P40073; details: median of control spots 1148
[7] = target: T5, Cyk3, Q07533; details: median of control spots 1451
T5 sequence (Q07533 1-83, looked up): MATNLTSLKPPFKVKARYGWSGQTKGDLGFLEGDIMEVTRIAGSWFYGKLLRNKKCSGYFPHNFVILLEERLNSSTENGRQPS

[8] = target: T6, Boi1, P38041; details: median of control spots 1162
T6 sequence (P38041 1-86, looked up): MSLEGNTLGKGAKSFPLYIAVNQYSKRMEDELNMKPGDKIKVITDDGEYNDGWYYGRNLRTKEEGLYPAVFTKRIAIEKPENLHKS

[9] = target: Myo3, P36006; details: median of control spots 468
[10] = target: T7, Hof1, Q05080; details: median of control spots 4086
T7 sequence (Q05080 590-669, looked up): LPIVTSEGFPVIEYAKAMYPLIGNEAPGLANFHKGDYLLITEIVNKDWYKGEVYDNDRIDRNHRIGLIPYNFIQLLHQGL

[11] = target: T8, Sla1-3, P32790; details: median of control spots 5475
T8 sequence (P32790 344-424, looked up): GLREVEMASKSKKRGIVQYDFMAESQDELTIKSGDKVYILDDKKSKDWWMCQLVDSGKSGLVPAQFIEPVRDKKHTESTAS

[12] = target: T9, Lsb3, P43603; details: median of control spots 406
T9 sequence (P43603 385-451, looked up): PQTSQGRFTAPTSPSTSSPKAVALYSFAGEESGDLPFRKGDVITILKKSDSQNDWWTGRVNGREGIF

[13] = target: T10, Bzz1-2, P38822; details: median of control spots 4538
T10 sequence (P38822 568-633, looked up): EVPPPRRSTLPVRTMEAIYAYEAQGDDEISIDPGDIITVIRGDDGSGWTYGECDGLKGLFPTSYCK

[14] = target: Bem1-1, P29366; details: median of control spots 4282
[15] = target: T11, Pin3, Q06449; details: median of control spots 2171
T11 sequence (Q06449 53-122, looked up): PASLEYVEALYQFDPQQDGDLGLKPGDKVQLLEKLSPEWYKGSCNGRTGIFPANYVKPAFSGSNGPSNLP

[16] = target: Rvs167, P39743; details: median of control spots 2707
[17] = target: T12, Cdc25, P04821; details: median of control spots 969
T12 sequence (P04821 50-136, looked up): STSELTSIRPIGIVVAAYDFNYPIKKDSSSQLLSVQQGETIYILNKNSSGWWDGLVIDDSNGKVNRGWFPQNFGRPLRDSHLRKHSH

[18] = target: T13, Abp1, P15891; details: median of control spots 935
T13 sequence (P15891 535-592, looked up): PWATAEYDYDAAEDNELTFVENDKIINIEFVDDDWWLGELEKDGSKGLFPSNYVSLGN

[19] = target: T14, Fus1, P11710; details: median of control spots 1200
T14 sequence (P11710 432-512, looked up): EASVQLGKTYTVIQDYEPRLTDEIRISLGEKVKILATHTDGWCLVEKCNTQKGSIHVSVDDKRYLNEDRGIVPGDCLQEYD

[20] = target: T15, Pex13, P80667; details: median of control spots 1341
T15 sequence (P80667 295-386, looked up): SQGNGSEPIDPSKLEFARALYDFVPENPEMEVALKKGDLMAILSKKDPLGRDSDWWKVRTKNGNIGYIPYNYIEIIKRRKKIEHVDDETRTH

[21] = target: T16, Bzz1-1, P38822; details: median of control spots 4446
T16 sequence (P38822 478-572, looked up): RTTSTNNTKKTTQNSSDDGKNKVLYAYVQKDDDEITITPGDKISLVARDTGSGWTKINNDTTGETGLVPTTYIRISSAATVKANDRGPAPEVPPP

[22] = target: Bem1-2, P29366; details: median of control spots 4347
[23] = target: T17, Bud14, P27637; details: median of control spots 956
T17 sequence (P27637 247-328, looked up): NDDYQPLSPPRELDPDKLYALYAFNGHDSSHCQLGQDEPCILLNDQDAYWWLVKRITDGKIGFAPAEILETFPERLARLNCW

[24] = target: T18, Bbc1, P47068; details: median of control spots 796
T18 sequence (P47068 1-78, looked up): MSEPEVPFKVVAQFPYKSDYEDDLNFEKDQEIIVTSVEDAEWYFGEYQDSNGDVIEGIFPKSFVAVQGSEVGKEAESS

[25] = target: T19, Boi2, P39969; details: median of control spots 1161
T19 sequence (P39969 32-116, looked up): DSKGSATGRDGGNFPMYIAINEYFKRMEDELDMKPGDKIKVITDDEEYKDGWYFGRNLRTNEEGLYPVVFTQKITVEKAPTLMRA

[26] = target: T20, Myo5, Q04439; details: median of control spots 471
T20 sequence (Q04439 1072-1160, looked up): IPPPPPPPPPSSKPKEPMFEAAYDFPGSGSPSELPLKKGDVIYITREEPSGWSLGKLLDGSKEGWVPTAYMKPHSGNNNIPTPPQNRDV

[27] = target: T21, Lsb4, P32793; details: median of control spots 397
T21 sequence (P32793 402-468, looked up): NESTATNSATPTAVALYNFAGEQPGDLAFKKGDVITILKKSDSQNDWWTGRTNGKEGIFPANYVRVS

Chain of Rvs167, P39743 (P39743 419-482): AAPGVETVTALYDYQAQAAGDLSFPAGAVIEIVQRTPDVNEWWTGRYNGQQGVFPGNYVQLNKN
Chain of Bem1-1, P29366 (P29366 55-141): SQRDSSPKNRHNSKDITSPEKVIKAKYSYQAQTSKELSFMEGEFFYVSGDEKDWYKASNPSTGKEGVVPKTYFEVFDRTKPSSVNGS
Chain of Bem1-2, P29366 (P29366 139-227): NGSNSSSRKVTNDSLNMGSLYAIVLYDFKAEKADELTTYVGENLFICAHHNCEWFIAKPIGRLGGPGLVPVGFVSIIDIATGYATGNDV
Chain of Sho1, P40073 (P40073 287-367): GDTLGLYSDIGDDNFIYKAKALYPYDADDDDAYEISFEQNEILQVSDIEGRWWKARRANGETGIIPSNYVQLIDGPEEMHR

B1: unnamed (peptide)
chain: LEFRAILFIPKRAPF
- SPOT intensity [1]: 6
- SPOT intensity [2]: 6
- SPOT intensity [3]: 35
- SPOT intensity [4]: 53
- SPOT intensity [5]: 0
- SPOT intensity [6]: 103
- SPOT intensity [7]: 1
- SPOT intensity [8]: 10
- SPOT intensity [9]: 34
- SPOT intensity [10]: 5
- SPOT intensity [11]: 8
- SPOT intensity [12]: 26
- SPOT intensity [13]: 0
- SPOT intensity [14]: 3
- SPOT intensity [15]: 68
- SPOT intensity [16]: 0
- SPOT intensity [17]: 29
- SPOT intensity [18]: 92
- SPOT intensity [19]: 87
- SPOT intensity [20]: 59
- SPOT intensity [21]: 0
- SPOT intensity [22]: 1
- SPOT intensity [23]: 13
- SPOT intensity [24]: 22
- SPOT intensity [25]: 4
- SPOT intensity [26]: 9
- SPOT intensity [27]: 18

B2: unnamed (peptide)
chain: RLSRLLLSLPPESFT
- SPOT intensity [1]: 59
- SPOT intensity [2]: 0
- SPOT intensity [3]: 6
- SPOT intensity [4]: 42
- SPOT intensity [5]: 0
- SPOT intensity [6]: 66
- SPOT intensity [7]: 2
- SPOT intensity [8]: 7
- SPOT intensity [9]: 10
- SPOT intensity [10]: 89
- SPOT intensity [11]: 45
- SPOT intensity [12]: 0
- SPOT intensity [13]: 4
- SPOT intensity [14]: 0
- SPOT intensity [15]: 27
- SPOT intensity [16]: 0
- SPOT intensity [17]: 172
- SPOT intensity [18]: 57
- SPOT intensity [19]: 81
- SPOT intensity [20]: 19
- SPOT intensity [21]: 0
- SPOT intensity [22]: 11
- SPOT intensity [23]: 50
- SPOT intensity [24]: 47
- SPOT intensity [25]: 2
- SPOT intensity [26]: 0
- SPOT intensity [27]: 3

B3: unnamed (peptide)
chain: PELAPKREAPKPPAN
- SPOT intensity [1]: 0
- SPOT intensity [2]: 0
- SPOT intensity [3]: 0
- SPOT intensity [4]: 281
- SPOT intensity [5]: 0
- SPOT intensity [6]: 0
- SPOT intensity [7]: 1
- SPOT intensity [8]: 1
- SPOT intensity [9]: 497
- SPOT intensity [10]: 0
- SPOT intensity [11]: 0
- SPOT intensity [12]: 0
- SPOT intensity [13]: 4
- SPOT intensity [14]: 0
- SPOT intensity [15]: 0
- SPOT intensity [16]: 0
- SPOT intensity [17]: 0
- SPOT intensity [18]: 0
- SPOT intensity [19]: 0
- SPOT intensity [20]: 0
- SPOT intensity [21]: 4
- SPOT intensity [22]: 1
- SPOT intensity [23]: 0
- SPOT intensity [24]: 7
- SPOT intensity [25]: 1
- SPOT intensity [26]: 262
- SPOT intensity [27]: 2

B4: unnamed (peptide)
chain: QLLNPNRRAPRRPLS
- SPOT intensity [1]: 20
- SPOT intensity [2]: 3
- SPOT intensity [3]: 56
- SPOT intensity [4]: 1130
- SPOT intensity [5]: 2
- SPOT intensity [6]: 50
- SPOT intensity [7]: 1
- SPOT intensity [8]: 5
- SPOT intensity [9]: 168
- SPOT intensity [10]: 3
- SPOT intensity [11]: 9
- SPOT intensity [12]: 43
- SPOT intensity [13]: 9
- SPOT intensity [14]: 0
- SPOT intensity [15]: 30
- SPOT intensity [16]: 0
- SPOT intensity [17]: 16
- SPOT intensity [18]: 125
- SPOT intensity [19]: 1
- SPOT intensity [20]: 21
- SPOT intensity [21]: 0
- SPOT intensity [22]: 169
- SPOT intensity [23]: 11
- SPOT intensity [24]: 158
- SPOT intensity [25]: 2
- SPOT intensity [26]: 13
- SPOT intensity [27]: 35

B5: unnamed (peptide)
chain: VRTRRRPPPPPIPST
- SPOT intensity [1]: 29
- SPOT intensity [2]: 4
- SPOT intensity [3]: 171
- SPOT intensity [4]: 35
- SPOT intensity [5]: 2
- SPOT intensity [6]: 46
- SPOT intensity [7]: 1
- SPOT intensity [8]: 1
- SPOT intensity [9]: 296
- SPOT intensity [10]: 6
- SPOT intensity [11]: 1790
- SPOT intensity [12]: 38
- SPOT intensity [13]: 4030
- SPOT intensity [14]: 0
- SPOT intensity [15]: 11
- SPOT intensity [16]: 45
- SPOT intensity [17]: 0
- SPOT intensity [18]: 107
- SPOT intensity [19]: 0
- SPOT intensity [20]: 8
- SPOT intensity [21]: 1720
- SPOT intensity [22]: 109
- SPOT intensity [23]: 8
- SPOT intensity [24]: 115
- SPOT intensity [25]: 1
- SPOT intensity [26]: 188
- SPOT intensity [27]: 39

B6: unnamed (peptide)
chain: APKREAPKPPANTSP
- SPOT intensity [1]: 0
- SPOT intensity [2]: 0
- SPOT intensity [3]: 0
- SPOT intensity [4]: 139
- SPOT intensity [5]: 0
- SPOT intensity [6]: 0
- SPOT intensity [7]: 0
- SPOT intensity [8]: 0
- SPOT intensity [9]: 277
- SPOT intensity [10]: 0
- SPOT intensity [11]: 12
- SPOT intensity [12]: 0
- SPOT intensity [13]: 0
- SPOT intensity [14]: 0
- SPOT intensity [15]: 2
- SPOT intensity [16]: 0
- SPOT intensity [17]: 3
- SPOT intensity [18]: 9
- SPOT intensity [19]: 0
- SPOT intensity [20]: 7
- SPOT intensity [21]: 10
- SPOT intensity [22]: 0
- SPOT intensity [23]: 0
- SPOT intensity [24]: 56
- SPOT intensity [25]: 0
- SPOT intensity [26]: 126
- SPOT intensity [27]: 1

From paper PMC2756588
